# Literature values, collected in paper PMC5493423.
# Tested on: CD31 (protein used for the reported Kd)
# Conditions: biotin; PBMCs at 1e7 cells/ml, 100 ul, aptamer 30 min at 4 C, then flow cytometry staining buffer; column in APTSCI binding buffer (composition not given)
substance,measurement,value
"CD31 aptamer, biotinylated (APTSCI CD31-2196BCI)",Kd,1.14 nM
